Laboratory results from PMC8005859 (2021).
“And” between values parts separate entries of the source, which are not always exact repeats. Equal entries are not always repeated.

Molecular target: SARS-CoV-2 S trimer (SARS-CoV-2, UniProt P0DTC2)
Experiment: SPR

B1: P17 (antibody, V domains shown)
VH: QQLVESGGGVVQPGRSLRLSCAASGFTFSSYAMHWVRQAPGKGLEWVAVISYDGSNKYYADSVKGRFTISRDNSKNTLYLQMNSLRAEDTAVYYCARHATLMNNKDIWGQGTLVTVSS
VL: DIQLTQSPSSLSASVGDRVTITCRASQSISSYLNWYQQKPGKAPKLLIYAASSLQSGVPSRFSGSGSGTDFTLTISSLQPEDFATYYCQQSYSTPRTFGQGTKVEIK
- Kd: 0.14 nM and 0.08 nM and 0.06 nM
